Measured values published in publication PMC7116788 (Nature microbiology, 2021).
Like-named read-outs stand apart in the source and are kept apart here.

Assays:
cryo-EM structure [1] = biological target: the molecule itself; assay: cryo-EM structure
cryo-EM structure [2] = biological target: the molecule itself; assay: cryo-EM structure; remark: listed apart in the source

B1: GldL (Flavobacterium johnsoniae) (natural protein)
chain: MALLSKKVMNFAYGMGAAVVIVGALFKITHFEIGPLTGTVMLSIGLLTEALIFALSAFEPVEDELDWTLVYPELANGQARKKEAKAETATDAQGLLSQKLDAMLKEAKVDGELMASLGNSIKNFEGAAKAISPTVDSIAGQKKYAEEMSMAAAQMESLNSLYKVQLESASRNAQANSEIAENAAKLKEQMASMTANIASLNSVYGGMLSAMSNKG
- stoichiometry N (cryo-EM structure [1]): 5

B2: PorL (Porphyromonas gingivalis ATCC 33277) (natural protein, UniProt B2RLE9 1-309, looked up)
chain: MGHYRRYKNILEMYLASHKGRRLLNIVYSWGAAVVILGALFKLLHLPMGNEMLFVGMITEFLVFFISGFEKPAMEYHWEEVFPELDSKNPMDRREMEQRREYLREKAKEAAAYAERPSSVRLASASLGTQPQEQPKPATPFQSQLTGILPEEQIQRLSEGIDKLAEAGEQLARIGRTAAAMTESYEQMQADQEGLRLNSQSYIQQMESLSRNISGLNTIYEIQLKGISSQIDTIDRINRGLAHIRDMYDNSVIDSSSFRNENERMARQLTQLNEVYARLLQALTTNVGLPGMPGNFGASNPSSSGSSPL
- binding result (cryo-EM structure [2]): binds

B3: PorM (Porphyromonas gingivalis ATCC 33277) (natural protein, UniProt B2RLE8 1-516, looked up)
chain: MAVGSNGNANRQKMINLMYLVFIAMMALNVSSEVLDGFDKVDKSLTSSIDGSDKRNNLVLSELNTAYRTNPEKVKVWYERSLVLQKEADSLCTFIDDLKLAIARESDGKDAKVNDIRRKDNLDASSVVMLNPINGKGSTLRKEVDKFRELVATLMTDKAKLKLIEQALNTESGTKGKSWESSLFENMPTVAAITLLTKLQSDVRYAQGEVLADLVKSVDVGDYRVNSITAQVIPQSQIVMSGDTYKANIVLSSVDTTQRPDVFVNGKLLSPENMGLFTATAGAPGTYPVKGYIEMMGNDGVKIRRDFESEYFVTEPMASVAPTMMNVLYAGIDNPINIAVPGVAQQNVSATINNGTLTRRGNLWIARPTKVGSEAIISVTAQSGGRTIQMAKTTLRVRALPDPLPYIEYKDVQGNTKRFKGGRLGKREILAAGGIKAALDDDLLEVNYTVVKFQLVFYDSMGNSIPEVSDGASFSERQKRQIQNLGKGKRFYVTEVIARGPDGIERKIPAIEVIVN
- stoichiometry N (cryo-EM structure [2]): 2
